The results in this text go back to patent publication US20240317842A1 (HOSPITAL FOR SICK CHILDREN, published 2024).

In the test the target is T1, 32-N MB.v3.
T1 construct: Self-assembled apoferritin nanocage (Multabody), plasmids co-transfected 3:1:1; monomeric IgG1 Fc chain at the C-terminus of C-ferritin, which dimerises in the particle; also called Multabody.v3; T-01 MBv2
The test is described as follows: BLI, His-tagged FcγRIIa on Ni-NTA biosensors, Multabody in solution [8f]. (In general: BLI is a label-free optical method that tracks binding on a fibre tip over time.)

B1: FcRIIa (receptor, human, UniProt P12318 34-217, looked up)
receptor chain: QAAAPPKAVLKLEPPWINVLQEDSVTLTCQGARSPESDSIQWFHNGNLIPTHTQPSYRFKANNNDSGEYTCQTGQTSLSDPVHLTVLSEWLVLQTPHLEFQEGETIMLRCHSWKDKPLVKVTFFQNGKSQKFSHLDPTFSIPQANHSHSGDYHCTGNIGYTLFSSKPVTITVQVPSMGSSSPMG
notes: His-tagged ligand loaded on Ni-NTA biosensors; also called FcγRIIa
On to B1, for which the binding result is “no binding”.
